Experimental data published in PMC6497155 (ACS infectious diseases, 2018).

How the values were obtained:
[1] = tested on: ClpP2; experiment: Proteolytic activity of ClpP2 with DTT; assay type: biochemical, C. difficile; details: varying concentrations of DTT; incubation times exceeding 48 h
[2] = Storage stability and concentration limit of purified ClpP; assay type: physicochemical; details: purified protein in activity buffer
[3] = tested on: ClpX; details: 200 nM ClpP, 50 nM ClpX; relative to ClpX alone
[4] = Thermal stability of ClpP homotetradecamers; assay type: physicochemical

Compound | Stimulation of ClpP2 proteolytic activity by DTT [1] | Concentration reached without any sign of precipitation [2] | Rate reduction of ClpX ATP hydrolysis [3] | Concentration above which less stability is exhibited [2] | Tm ([4]; no ADEP, SYPRO Orange, activity buffer (25 mM HEPES, 100 mM KCl, 5 mM MgCl2, 1 mM DTT, 10% glycerol), 25 to 85 °C in 0.3 °C increments, triplicate, Boltzmann fit) [°C] | Effect of reduced conditions on thermal stability ([4]; reduced conditions)
O[C@@H](CS)[C@@H](O)CS (racemic) [dithiothreitol (DTT), dithiothreitol] | failed to stimulate proteolytic activity |  |  |  |  | 
ClpP1: recombinant C. difficile ClpP1 (YP_001089821.1), homotetradecamer, prepared from ΔEcClpP E. coli unless otherwise noted |  | ~ 60 mg/mL | ~ 18% |  |  | 
ClpP2: recombinant C. difficile ClpP2 (YP_001089868.1), homotetradecamer |  |  | ~ 7% | exceeding 12.5 mg/mL | 46.5 | no significant effect on the thermal stability
